Data published in patent US20240158494A1 (Biogen, published 2024).

B1: TfR1 ANTIBODY-A HC-H0 hIgG1 Fab′(1C)/LC-L0 hKappa (Fab, V domains shown)
VH: EVQLVESGGGLVQPGGSLRLSCAASGIDFSSSGYMAWVRQAPGKGLEWVGAIYTYSSNTYYAASVKGRFTISRDDSKNSLYLQMNSLKTEDTAVYYCARGTYGYTGYTYTMGYFSLWGQGTLVTVSS
VL: DIQMTQSPSTLSASVGDRVTITCQASQNINSYLAWYQQKPGKAPKLLIYRASSLESGVPSRFSGSGSGTEFTLTISSLQPDDFATYYCQSYYYSGSSNYNAFGGGTKVEIKR
notes: also called ANTIBODY-A H0/L0
B2: TfR1 ANTIBODY-A HC-H1 hIgG1 Fab′(1C)/LC-L1 hKappa (Fab, V domains shown)
VH: QSLVESGGGLVQPGGSLRLSCAASGIDFSSSGYMAWVRQAPGKGLEWVGAIYTYSSNTYYAASVKGRFTISRDDSKNSLYLQMNSLKTEDTAVYYCARGTYGYTGYTYTMGYFSLWGQGTLVTVSS
VL: DIQMTQSPSTLSASVGDRVTITCQASQNINSYLAWYQQKPGKAPKLLIYRASTLASGVPSRFSGSGSGTEFTLTISSLQPDDFATYYCQSYYYSGSSNYNAFGGGTKVEIKR
notes: also called ANTIBODY-A H1/L1
B3: TfR1 ANTIBODY-A HC-H1 hIgG1 Fab′(1C)/LC-L2 hKappa (Fab, V domains shown)
VH: QSLVESGGGLVQPGGSLRLSCAASGIDFSSSGYMAWVRQAPGKGLEWVGAIYTYSSNTYYAASVKGRFTISRDDSKNSLYLQMNSLKTEDTAVYYCARGTYGYTGYTYTMGYFSLWGQGTLVTVSS
VL: ELDMTQSPSTLSASVGDRVTITCQASQNINSYLAWYQQKPGKAPKLLIYRASTLASGVPSRFSGSGSGTEFTLTISSLQPDDFATYYCQSYYYSGSSNYNAFGGGTKVEIKR
notes: also called ANTIBODY-A H1/L2
B4: TfR1 ANTIBODY-A HC-H1C hIgG1 Fab′(1C)/LC-L0 hKappa (Fab, V domains shown)
VH: QSLVESGGGLVQPGGSLRLSCAASGIDFSSSGYMCWVRQAPGKGLEWVGCIYTYSSNTYYAASVKGRFTISRDDSKNSLYLQMNSLKTEDTAVYYCARGTYGYTGYTYTMGYFSLWGQGTLVTVSS
VL: DIQMTQSPSTLSASVGDRVTITCQASQNINSYLAWYQQKPGKAPKLLIYRASSLESGVPSRFSGSGSGTEFTLTISSLQPDDFATYYCQSYYYSGSSNYNAFGGGTKVEIKR
notes: also called ANTIBODY-A H1C/L0
B5: TfR1 ANTIBODY-A HC-H1C hIgG1 Fab′(1C)/LC-L2 hKappa (Fab, V domains shown)
VH: QSLVESGGGLVQPGGSLRLSCAASGIDFSSSGYMCWVRQAPGKGLEWVGCIYTYSSNTYYAASVKGRFTISRDDSKNSLYLQMNSLKTEDTAVYYCARGTYGYTGYTYTMGYFSLWGQGTLVTVSS
VL: ELDMTQSPSTLSASVGDRVTITCQASQNINSYLAWYQQKPGKAPKLLIYRASTLASGVPSRFSGSGSGTEFTLTISSLQPDDFATYYCQSYYYSGSSNYNAFGGGTKVEIKR
notes: also called ANTIBODY-A H1C/L2
B6: TfR1 ANTIBODY-A HC-H2 hIgG1 Fab′(1C)/LC-L1 hKappa (Fab, V domains shown)
VH: QSLVESGGGLVQPGGSLRLSCAASGIDFSSSGYMAWVRQAPGKGLEWVGAIYTYSSNTYYAASVKGRFTISKTSSTTVYLQMNSLKTEDTAVYYCARGTYGYTGYTYTMGYFSLWGQGTLVTVSS
VL: DIQMTQSPSTLSASVGDRVTITCQASQNINSYLAWYQQKPGKAPKLLIYRASTLASGVPSRFSGSGSGTEFTLTISSLQPDDFATYYCQSYYYSGSSNYNAFGGGTKVEIKR
notes: heavy chain derived; also called ANTIBODY-A H2/L1
B7: TfR1 ANTIBODY-A HC-H0 hIgG1 Fab′(1C)/LC-L2 hKappa (Fab, V domains shown)
VH: EVQLVESGGGLVQPGGSLRLSCAASGIDFSSSGYMAWVRQAPGKGLEWVGAIYTYSSNTYYAASVKGRFTISRDDSKNSLYLQMNSLKTEDTAVYYCARGTYGYTGYTYTMGYFSLWGQGTLVTVSS
VL: ELDMTQSPSTLSASVGDRVTITCQASQNINSYLAWYQQKPGKAPKLLIYRASTLASGVPSRFSGSGSGTEFTLTISSLQPDDFATYYCQSYYYSGSSNYNAFGGGTKVEIKR
notes: also called ANTIBODY-A H0/L2
B8: TfR1 ANTIBODY-A HC-H0C hIgG1 Fab′(1C)/LC-L2 hKappa (Fab, V domains shown)
VH: EVQLVESGGGLVQPGGSLRLSCAASGIDFSSSGYMCWVRQAPGKGLEWVGCIYTYSSNTYYAASVKGRFTISRDDSKNSLYLQMNSLKTEDTAVYYCARGTYGYTGYTYTMGYFSLWGQGTLVTVSS
VL: ELDMTQSPSTLSASVGDRVTITCQASQNINSYLAWYQQKPGKAPKLLIYRASTLASGVPSRFSGSGSGTEFTLTISSLQPDDFATYYCQSYYYSGSSNYNAFGGGTKVEIKR
notes: also called ANTIBODY-A H0C/L2

How the values were obtained:
[1] = molecular target: T1, human transferrin receptor 1 (TfR1), full length, expressed on cells (human, UniProt P02786 1-760); assay: FACS on Ba/F3 cells, Fab supernatant
T1 construct: also called human TfR1; huTfR

[2] = molecular target: T2, cynomolgus monkey transferrin receptor 1 (TfR1), full length, expressed on cells (cynomolgus monkey, UniProt Q5RDH6 1-760 (Pongo abelii entry)); assay: FACS on Ba/F3 cells, Fab supernatant
T2 construct: also called cyno TfR1; cyTfR

EC50 [1] [nM] | EC50 [2] [nM] | Binder
18 | > 85 | B1
~30 | > 162 | B2
> 74 | – | B3
2.5 | 15.5 | B4
3.6 | ~39 | B5
4.4 | > 36 | B6
> 70 | – | B7
3.6 | – | B8
